# Laboratory results taken from patent US9051358B2, “Nonnatural collagen-like protein and use thereof” (ZHEJIANG UNIVERSITY, priority 2009, dated 2015).
# Columns and labels:
# [1] = Half-life of GLK/IFNα fusion proteins in SD rats; type: in vivo
# Excerpt: The structure characteristics and half-life in SD rats of the different GLK/IFNαs, which was constructed by fusion to different GLK, was compared in Table 5.
# 2′,5′-OAS = assay: Serum 2′,5′-OAS activity in rhesus monkeys after subcutaneous administration; type: in vivo
# Experimental: Rhesus monkeys.(n=15; including female and male; age range: 3-4; weight range: 4.2-4.8 kg), were purchased from Animal Center of Chinese Academy of Military Medicine and divided into five groups (3 in each group). Samples were diluted with PBS, wherein rGLK1164/IFNα was diluted respectively to 0.36, 1.0 and 3.6 pmol/kg, IFNα (positive control) was diluted to 0.36 pmol/kg, and rGLK1164 (blank control) was diluted to 0.36 pmol/kg. The diluted samples were administered to rhesus monkeys subcutaneously and the serum samples were collected at 0, 1, 2, 4, 8, 10, 14 […] after injection respectively. The activity of 2′, 5′-OAS in serum was measured with 2′,5′-OAS radioimmunoassay kit (Eiken Chemical Co., Tokyo, Japan).
# erythropoiesis = assay: Erythropoiesis in normal mice, hemoglobin (Hb) content; type: in vivo, BALB/c mice; details: weekly subcutaneous administration
# Experimental: rEPO/GLK1074 fusion protein was compared with standard rEPO (EPOGEN®, AMGEN Inc.) in erythropoiesis activity in mice. BALB/c mice (male, 6-8 weeks old, 18˜20 g/only) from the Shanghai Institute of animal testing center were used in the experiments. Grouping, injection, and tail vein blood samples collecting were performed according to the following table. Hemoglobin (Hb) content was determined by colorimetric.
substance,measurement,setting,value
"GLK302/IFNα: IFNα fused with GLK302, a repeated sequence of GGSGGS (SEQ ID NO: 16)",Half-life,[1],14.4 h
IFNα [reference compound],detectability in vivo,"2′,5′-OAS",could hardly be detected 6 days later
"rEPO: standard rEPO (EPOGEN®, AMGEN Inc.) [reference compound]","erythropoiesis activity, Hb levels",erythropoiesis,significantly lower than rEPO/GLK1074
